In assay [1] the target is human Sirpα-V1 recombinant protein (human) (UniProt P78324). Put plainly: ELISA.
Assay [2] concerns the target human Sirpα-V1-hFc (human) (UniProt P78324). Put plainly: blocking ELISA: hSirpα (dimer) to hCD47.
In assay [3] the target is human Sirpα-V1-his (human) (UniProt P78324). Put plainly: blocking ELISA: hSirpα to hCD47 (dimer). On the technique in general: An ELISA detects its analyte on a solid surface through an enzyme-linked reagent.
Assay [4] has as its target human Sirpα-V2-his (human). Put plainly: ELISA, subclone supernatant.
For assay [5], the target named is human Sirpα-V1 recombinant protein (human) (UniProt P78324). Put plainly: ELISA, subclone supernatant.
In assay [6] the target is human Sirpα-V1-hFc (human) (UniProt P78324). Put plainly: blocking ELISA: hSirpα-V1-hFc (dimer), hCD47-his.
For assay [7], the target named is human Sirpα-V1-his (human) (UniProt P78324). Put plainly: blocking ELISA: hSirpα-V1-his, hCD47-Fc (dimer).
Assay [8] has the same target. Put plainly: blocking ELISA: hSirpα to hCD47 (dimer). This is another data set of the same source.
The target of assay [9] is human Sirpα-V1-hFc (human) (UniProt P78324). Put plainly: blocking ELISA: hSirpα (dimer) to hCD47. This is another data set of the same source.
The target in assay [10] is Cyno Sirpα L932 (cynomolgus). Put plainly: ELISA.
Cyno Sirpα L932 (cynomolgus), sequence (chain, as listed by the source): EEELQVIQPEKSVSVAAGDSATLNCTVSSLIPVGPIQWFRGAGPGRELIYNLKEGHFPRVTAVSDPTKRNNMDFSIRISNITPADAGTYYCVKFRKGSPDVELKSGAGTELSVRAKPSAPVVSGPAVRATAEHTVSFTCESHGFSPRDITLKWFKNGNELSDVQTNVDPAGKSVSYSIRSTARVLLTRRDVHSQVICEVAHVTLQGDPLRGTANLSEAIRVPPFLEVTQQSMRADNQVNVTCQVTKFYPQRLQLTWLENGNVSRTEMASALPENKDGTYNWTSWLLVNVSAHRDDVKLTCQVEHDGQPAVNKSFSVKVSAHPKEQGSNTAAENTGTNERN
Assay [11] deals with Cyno Sirpα L937 (cynomolgus). Put plainly: ELISA.
Cyno Sirpα L937 (cynomolgus), sequence (chain, as listed by the source): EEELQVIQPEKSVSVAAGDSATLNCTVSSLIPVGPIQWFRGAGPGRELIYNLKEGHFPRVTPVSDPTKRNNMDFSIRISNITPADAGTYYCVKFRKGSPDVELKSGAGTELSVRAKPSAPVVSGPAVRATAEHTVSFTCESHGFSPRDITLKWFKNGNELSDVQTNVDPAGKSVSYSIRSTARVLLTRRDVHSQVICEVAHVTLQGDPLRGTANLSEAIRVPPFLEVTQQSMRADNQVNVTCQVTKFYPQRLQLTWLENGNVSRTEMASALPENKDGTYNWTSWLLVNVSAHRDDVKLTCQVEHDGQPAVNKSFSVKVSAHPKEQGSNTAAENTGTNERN
The target of assay [12] is Cyno Sirpα L933 (cynomolgus). Put plainly: ELISA.
Cyno Sirpα L933 (cynomolgus), sequence (chain, as listed by the source): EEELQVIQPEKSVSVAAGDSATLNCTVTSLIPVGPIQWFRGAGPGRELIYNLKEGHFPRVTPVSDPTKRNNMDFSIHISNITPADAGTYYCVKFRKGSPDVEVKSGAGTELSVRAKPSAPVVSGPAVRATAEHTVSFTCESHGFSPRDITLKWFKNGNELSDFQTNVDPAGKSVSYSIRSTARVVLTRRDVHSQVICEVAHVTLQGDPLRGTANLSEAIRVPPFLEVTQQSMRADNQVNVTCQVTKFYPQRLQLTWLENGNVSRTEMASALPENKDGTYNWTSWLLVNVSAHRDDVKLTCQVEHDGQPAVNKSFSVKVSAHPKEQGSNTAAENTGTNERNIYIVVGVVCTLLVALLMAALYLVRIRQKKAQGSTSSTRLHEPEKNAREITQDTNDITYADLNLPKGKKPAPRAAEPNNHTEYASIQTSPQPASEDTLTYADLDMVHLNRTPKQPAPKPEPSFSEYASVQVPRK
Assay [13] deals with Cyno Sirpα L936 (cynomolgus). Put plainly: ELISA.
Cyno Sirpα L936 (cynomolgus), sequence (chain, as listed by the source): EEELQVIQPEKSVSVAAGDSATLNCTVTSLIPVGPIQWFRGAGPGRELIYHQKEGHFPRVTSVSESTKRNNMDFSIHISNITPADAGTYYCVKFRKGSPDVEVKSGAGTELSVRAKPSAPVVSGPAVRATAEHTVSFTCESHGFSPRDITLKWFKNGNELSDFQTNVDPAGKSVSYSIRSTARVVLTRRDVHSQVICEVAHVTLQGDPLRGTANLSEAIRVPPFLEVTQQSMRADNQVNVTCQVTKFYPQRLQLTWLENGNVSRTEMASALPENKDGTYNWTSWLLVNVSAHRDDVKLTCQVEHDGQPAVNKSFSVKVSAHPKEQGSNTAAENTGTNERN
The target in assay [14] is human Sirpα-V2-his (human). Put plainly: ELISA.
Assay [15] deals with human Sirpα-V1 recombinant protein (human) (UniProt P78324). Put plainly: ELISA. The source holds these as a separate data set.

Changes are numbered by the printed parent chain. Like-named read-outs stand apart in the source and are kept apart here.

B1: mab14-h2 (antibody, V domains shown)
VH: QVQLVQSGAEVKKPGASVKVSCKASGYNFNIYWINWVKQAPGQGLEWIGNIYPSSISTNYNEKFKTKATLTVDKSTSTVYMEFSSLRSEDTAVYYCARSEGTYYGGRYEGDWFGYWGQGTLVTVSS
VL: DIQMTQSPSSLSASVGDRVTITCRASQDIRNYLNWYQQKPGGTVKLLIYFTSTLHSGVPSRFSGSGSGTDYTLTISSLQPEDFATYYCQQGNTLPWTFGGGTKVEIKR
For B1, the EC50 in assay [1] came to 73 pM.

B2: mab14-h5 (antibody, V domains shown)
VH: B1 VH with K38R, K67R, F83L
VL: B1 VL
For the molecule B2, the IC50 in assay [2] came to 8990 pM; in [3], 8470 pM. For the same molecule, the EC50 in [1] worked out at 61 pM.

B3: mab14-h7 (antibody, V domains shown)
VH: B1 VH with K74T, F83L
VL: B1 VL
Turning to B3, the EC50 in assay [1] came to 81 pM.

B4: mab14-h4 (antibody, V domains shown)
VH: B1 VH with K38R, K67R, K74T, F83L
VL: B1 VL
B4: the EC50 in assay [1] was 88 pM.

B5: mab14-h3 (antibody, V domains shown)
VH: B1 VH with K38R, I48M, K67R, K74T, F83L
VL: B1 VL
With B5, the EC50 in [1] was 103 pM.

B6: mab14-h6 (antibody, V domains shown)
VH: B1 VH with K67R, K74T, F83L
VL: B1 VL
As to B6, in assay [1], the EC50 stood at 95 pM.

B7: 14H6E5B5C8G2 (antibody, V domains shown)
VH: QVHLQQPGAELVKPGASVKLSCKASGYNFNIYWINWVKQRPGQGLEWIGNIYPSSISTNYNEKFKTKATLTVDKSSNTVYMQFSSLTSEDSAVYYCARSEGTYYGGRYEGDWFGYWGQGTLVTVSA
VL: DIQMTQTTSSLSASLGDRVTISCRASQDIRNYLNWYQQKPDGTVKLLIYFTSTLHSGVPSRFSGSGSGTDYSLTISNLEQEDIATYFCQQGNTLPWTFGGGTKLEIK
As to B7, the ELISA value, activity of binding in assay [4] was determined as 1.25; in assay [5], 1.27. The ELISA value of the blocking assay in assay [6] amounted to 0.069; in assay [7] it was 0.42.

B8: human-murine chimeric antibody mab14c (antibody, V domains shown)
VH: B7 VH
VL: DIQMTQTTSSLSASLGDRVTISCRASQDIRNYLNWYQQKPDGTVKLLIYFTSTLHSGVPSRFSGSGSGTDYSLTISNLEQEDIATYFCQQGNTLPWTFGGGTKLEIKR
Regarding B8, the IC50 in assay [2] came to 5480 pM; in [8] it was 5540 pM; in assay [3] it was 9980 pM; in assay [9], 5700 pM. Also, the EC50 in assay [1] was 93 pM; in assay [10], 100 pM; in [11], 99 pM; in assay [12], 140 pM; in [13], 99 pM; in assay [14] it was 140 pM. Moreover, the EC50 in assay [15] was 160 pM.

The EC50 is the concentration at which the effect is half-maximal. One may read the IC50 as the midpoint of a concentration-inhibition curve. Low readings indicate higher potency, high ones lower potency.
